From patent US20130225488A1 (CADILA HEALTHCARE, published 2013)
Where no end group is shown, it is not given here. [ ]: non-standard residue; d: D form. αMePhe(2-F) = C[C@](N)(Cc1ccccc1F)C(=O)O; Ac3c = NC1(C(=O)O)CC1

B1: Seq. ID. No. 25: HAQGT-(α-Me-2F-Phe)-TSD-Bip(OMe)-Bip(2Me) (peptide)
peptide: HAQGT[αMePhe(2-F)]TSD[Bip(OMe)][Bip(2Me)]
B2: Seq. ID. No. 22: HSQGT-(α-Me-2F-Phe)-TSD-Bip(OMe)-Bip(Pyr) (peptide)
peptide: HSQGTXTSDXX
modifications: α-Me-2F-Phe at 6; Bip(OMe) at 10; Bip(Pyr) at 11
B3: Seq. ID. No. 24: HSQGT-(α-Me-2F-Phe)-TSD-Bip(OMe)-Bip(2CF3) (peptide)
peptide: HSQGTXTSDXX
modifications: α-Me-2F-Phe at 6; Bip(OMe) at 10; Bip(2CF3) at 11
B4: Seq. ID. No. 28: HAQGT-(α-Me-2F-Phe)-TSD-Bip(OMe)-Bip(2CF3) (peptide)
peptide: HAQGT[αMePhe(2-F)]TSD[Bip(OMe)][Bip(2CF3)]
B5: Seq. ID. No. 26: HAQGT-(α-Me-2F-Phe)-TSD-Bip(OMe)-Bip(Pyr) (peptide)
peptide: HAQGT[αMePhe(2-F)]TSD[Bip(OMe)][Bip(Pyr)]
B6: Seq. ID. No. 21: HSQGT-(α-Me-2F-Phe)-TSD-Bip(OMe)-Bip(2Me) (peptide)
peptide: HSQGTXTSDXX
modifications: α-Me-2F-Phe at 6; Bip(OMe) at 10; Bip(2Me) at 11
B7: Seq. ID. No. 31: H-Aib-QGT-(α-Me-2F-Phe)-TSD-Bip(OMe)-Bip(2F) (peptide)
peptide: HXQGTXTSDXX
modifications: Aib at 2; α-Me-2F-Phe at 6; Bip(OMe) at 10; Bip(2F) at 11
B8: Seq. ID. No. 29: H-Aib-QGT-(α-Me-2F-Phe)-TSD-Bip(OMe)-Bip(2Me) (peptide)
peptide: HXQGTXTSDXX
modifications: Aib at 2; α-Me-2F-Phe at 6; Bip(OMe) at 10; Bip(2Me) at 11
B9: Seq. ID. No. 36: H-(ACP)-QGT-(α-Me-2F-Phe)-TSD-Bip(OMe)-Bip(2CF3) (peptide)
peptide: HXQGTXTSDXX
modifications: not fully specified; ACP at 2; α-Me-2F-Phe at 6; Bip(OMe) at 10; Bip(2CF3) at 11
B10: Seq. ID. No. 27: HAQGT-(α-Me-2F-Phe)-TSD-Bip(OMe)-Bip(2F) (peptide)
peptide: HAQGT[αMePhe(2-F)]TSD[Bip(OMe)][Bip(2F)]
B11: Seq. ID. No. 32: H-Aib-QGT-(α-Me-2F-Phe)-TSD-Bip(OMe)-Bip(2CF3) (peptide)
peptide: HXQGTXTSDXX
modifications: Aib at 2; α-Me-2F-Phe at 6; Bip(OMe) at 10; Bip(2CF3) at 11; C-terminal amide (CONH2)
B12: Seq. ID. No. 20: H-(ACP)-QGTFTSD-Bip(OMe)-Bip(2CF3) (peptide)
peptide: H[Ac3c]QGTFTSD[Bip(OMe)][Bip(2CF3)]
modifications: not fully specified
B13: Seq. ID. No. 10: HAQGTFTSD-Bip(OMe)-Bip(Pyr) (peptide)
peptide: HAQGTFTSD[Bip(OMe)][Bip(Pyr)]
B14: Seq. ID. No. 33: H-(ACP)-QGT-(α-Me-2F-Phe)-TSD-Bip(OMe)-Bip(2Me) (peptide)
peptide: HXQGTXTSDXX
modifications: ACP at 2; α-Me-2F-Phe at 6; Bip(OMe) at 10; Bip(2Me) at 11
B15: Seq. ID. No. 12: HAQGTFTSD-Bip(OMe)-Bip(2CF3) (peptide)
peptide: HAQGTFTSD[Bip(OMe)][Bip(2CF3)]
B16: Seq. ID. No. 30: H-Aib-QGT-(α-Me-2F-Phe)-TSD-Bip(OMe)-Bip(Pyr) (peptide)
peptide: HXQGTXTSDXX
modifications: Aib at 2; α-Me-2F-Phe at 6; Bip(OMe) at 10; Bip(Pyr) at 11
B17: Seq. ID. No. 19: H-(ACP)-QGTFTSD-Bip(OMe)-Bip(2F) (peptide)
peptide: H[Ac3c]QGTFTSD[Bip(OMe)][Bip(2F)]
B18: Seq. ID. No. 23: HSQGT-(α-Me-2F-Phe)-TSD-Bip(OMe)-Bip(2F) (peptide)
peptide: HSQGTXTSDXX
modifications: α-Me-2F-Phe at 6; Bip(OMe) at 10; Bip(2F) at 11
B19: Seq. ID. No. 6: HSQGTFTSD-Bip(OMe)-Bip(Pyr) (peptide)
peptide: HSQGTFTSD[Bip(OMe)][Bip(Pyr)]
modifications: not fully specified (C-terminus); printed as HSQGTFTSD-Bip(OMe)-Bip(Pyr)

Target: Human glucagon receptor (human, UniProt P47871 26-477)
Test: cell-based or functional assay

cAMP production with saturated glucagon peptide; test compound 1 nM [pmol/ml/µg prt]	cAMP production with saturated glucagon peptide; test compound 10 nM [pmol/ml/µg prt]	cAMP production with saturated glucagon peptide; test compound 100 nM [pmol/ml/µg prt]	cAMP production with saturated glucagon peptide; test compound 10 µM [pmol/ml/µg prt]	cAMP production with saturated glucagon peptide; test compound '1 nM' [pmol/ml/µg prt]	Binder
18	16	12	6	8	B1
21	19	18	16	18	B2
4	2	0	0	0	B3
4	3	0	0	0	B4
15	12	8	2	4	B5
19	17	15	12	14	B6
6	5	2	0	0	B7
10	8	6	1	4	B8
3	1	0	0	0	B9
14	11	7	0	3	B10
4	2	0	0	0	B11
5	2	0	0	0	B12
15	12	8	2	4	B13
0	0	0	0	0	B14
5	3	0	0	0	B15
9	6	5	0	3	B16
5	3	1	0	0	B17
4	2	2	0	0	B18

Target: Human GLP-1 receptor (human, UniProt P43220 24-463)
Sequence (P43220 24-463): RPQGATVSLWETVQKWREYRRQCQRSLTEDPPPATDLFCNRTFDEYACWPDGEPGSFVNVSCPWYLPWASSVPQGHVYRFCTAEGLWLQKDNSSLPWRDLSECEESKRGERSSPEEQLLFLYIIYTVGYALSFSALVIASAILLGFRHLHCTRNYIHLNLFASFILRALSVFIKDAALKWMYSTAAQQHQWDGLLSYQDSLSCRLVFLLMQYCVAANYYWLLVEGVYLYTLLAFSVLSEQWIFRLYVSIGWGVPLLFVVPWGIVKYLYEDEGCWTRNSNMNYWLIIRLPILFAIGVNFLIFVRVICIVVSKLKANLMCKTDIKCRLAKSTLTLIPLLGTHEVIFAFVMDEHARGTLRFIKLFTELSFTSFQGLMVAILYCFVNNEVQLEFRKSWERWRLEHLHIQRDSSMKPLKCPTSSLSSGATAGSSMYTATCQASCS
Test: cell-based or functional assay

cAMP release, % activity with respect to control; test compound 1 nM [%]	cAMP release, % activity with respect to control; test compound 10 nM [%]	cAMP release, % activity with respect to control; test compound 100 nM [%]	cAMP release, % activity with respect to control; test compound 1 µM [%]	cAMP release, % activity with respect to control; test compound 10 µM [%]	Binder
38	77	85	94	97	B1
41	82	87	95	98	B3
55	88	92	99	99	B4
39	80	88	96	99	B19
39	80	86	95	98	B6
93	99	99	99	99	B7
99	99	99	99	99	B8
82	87	92	99	99	B10
99	99	99	99	99	B11
99	99	99	99	99	B14
93	99	99	99	99	B16
46	85	90	99	99	B18
